Test results from US20260265329A1, “POLYPEPTIDE AND DERIVATIVE THEREOF, COMPOSITION, AND USE THEREOF” (HANGZHOU SCIWIND BIOSCIENCES CO., LTD., priority 2023, published 2026).
Each block holds one molecule with its values, some of them ahead of it. Starred links: 1 amine or outer side, 2 acyl side, 3 side chain; linkers in the order of their positions; H or OH if unused. Non-standard residues stand in square brackets, D forms with d. Residues, ends and D or L forms follow the SMILES beside them. Primed or numbered codes have the meaning given here. *: point of attachment. C20 diacid = O=C(O)CCCCCCCCCCCCCCCCCCC(=O)*; γGlu = O=C(O)[C@H](CCC(=O)[*:2])N[*:1]; βAsp = O=C(O)[C@H](CC(=O)[*:2])N[*:1]; Hyp = O=C(O)[C@@H]1C[C@@H](O)CN1; Inp′ = not defined here; Trx′ = not defined here; AEEA = NCCOCCOCC(=O)O

Assays:
[1] = Heat accelerated stability assay, 40° C., detection on 7 d and 28 d; type: physicochemical
Method: The derivatives (1 mg/mL) were mixed with sodium dihydrogen phosphate (1.42 mg/mL) and dissolved in ultrapure water. After adjusting pH to about 7.4 with hydrochloric acid/sodium hydroxide, the solution was filtered into a sterilized vial in a clean bench using a 0.22 μm sterile filter. The vial was then capped and placed into the stability test chamber at 40° C. Detections were made on Days 7 (7d) and 28 (28d), and during the assay, changes in the characteristics and properties of the polypeptides were observed and recorded. The sample was then centrifuged for 3 min at 10000 rpm at 4° C., and the supernatant was transferred to a liquid phase sample vial for detecting the concentration and purity of the polypeptides using liquid phase chromatography described as below.
Conditions of the reversed phase chromatography Flow rate: 1.0 mL/min; Autosampler temperature: 15° C.; Column temperature: 25° C.; Detection wavelength: 214 nm; Mobile phase A: 100% H2O+0.05% TFA; Mobile phase B: 100% ACN; and Gradient of elution listed in Table 4: […]

human amylin receptors = biological target: T1, human amylin receptors (Homo sapiens, UniProt O60896+P30988); experiment: Luciferase assay in stably transfected amylin receptor/CRE-luc CHO cell line; type: cell-based
T1 construct: host or cells: CHO-K1/Ga15/AMY3 cells, further stably transfected with a CRE-luciferase plasmid
T1 sequence (P30988 25-474): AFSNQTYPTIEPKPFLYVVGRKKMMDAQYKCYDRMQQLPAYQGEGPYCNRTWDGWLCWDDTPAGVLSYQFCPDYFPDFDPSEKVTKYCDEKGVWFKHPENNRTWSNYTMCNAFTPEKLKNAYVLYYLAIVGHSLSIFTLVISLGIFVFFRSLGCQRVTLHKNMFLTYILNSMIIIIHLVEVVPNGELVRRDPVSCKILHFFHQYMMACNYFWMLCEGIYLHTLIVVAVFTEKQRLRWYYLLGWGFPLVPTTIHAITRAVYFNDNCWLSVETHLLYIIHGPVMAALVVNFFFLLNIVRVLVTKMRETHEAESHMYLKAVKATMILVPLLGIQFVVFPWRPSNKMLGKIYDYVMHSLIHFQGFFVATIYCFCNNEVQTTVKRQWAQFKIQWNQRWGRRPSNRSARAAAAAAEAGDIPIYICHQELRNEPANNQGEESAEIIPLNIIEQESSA
T1 sequence (O60896 24-148 partner): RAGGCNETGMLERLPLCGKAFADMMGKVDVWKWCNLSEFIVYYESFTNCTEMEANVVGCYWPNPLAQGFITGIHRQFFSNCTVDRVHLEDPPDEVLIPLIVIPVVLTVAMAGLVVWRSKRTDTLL

[2] = biological target: T2, human amylin receptor on CHO-K1/Ga15/AMY3 cells (amylin receptor/CRE-luc cell line) (human) (UniProt P30988); experiment: cell-based or functional assay
T2 sequence (looked up) 1: T1 sequence (P30988 25-474)
T2 sequence (looked up) 2: T1 sequence (O60896 24-148 partner)

Purity from the reversed phase chromatography-214 nm, 0 d ([1]; 1 mg/mL, pH about 7.4, 40° C., 0 d): 86.93
Purity from the reversed phase chromatography-214 nm, 7 d ([1]; 1 mg/mL, pH about 7.4, 40° C., 7 d): 86.57
Purity from the reversed phase chromatography-214 nm, 28 d ([1]; 1 mg/mL, pH about 7.4, 40° C., 28 d): 87.31
Change (7 d − 0 d) ([1]; purity on 7 d − purity on 0 d, 40° C., pH about 7.4): −0.36
Change (28 d − 0 d) ([1]; purity on 28 d − purity on 0 d, 40° C., pH about 7.4): 0.38
Relative activity (human amylin receptors; EC50 ratio of Cagrilintide to the compound, Cagrilintide 100%): 53%
EC50 (human amylin receptors; amylin receptor/CRE-luc CHO cells, 24 hours incubation, luminescence): 0.049 nM
Molecule: CC[C@H](C)[C@H](NC(=O)[C@H](CC(=O)O)NC(=O)[C@H](CCCNC(=N)N)NC(=O)[C@H](CC(=O)O)NC(=O)[C@H](CCCNC(=N)N)NC(=O)[C@H](CC(=O)O)NC(=O)[C@@H](NC(=O)[C@H](Cc1ccccc1)NC(=O)[C@H](Cc1c[nH]cn1)NC(=O)[C@H](CCCNC(=N)N)NC(=O)[C@H](CC(C)C)NC(=O)[C@H](Cc1ccccc1)NC(=O)[C@H](CC(=O)O)NC(=O)[C@H](C)NC(=O)[C@H](CC(C)C)NC(=O)[C@H](CCCNC(=N)N)NC(=O)[C@H](CCC(N)=O)NC(=O)[C@@H](NC(=O)[C@@H](NC(=O)[C@H](C)NC(=O)[C@@H](NC(=O)[C@H](CO)NC(=O)[C@H](CC(C)C)NC(=O)[C@H](CCC(N)=O)NC(=O)[C@H](CO)NC(=O)[C@H](C)NC(=O)CC[C@H](NC(=O)CCCCCCCCCCCCCCCCCCC(=O)O)C(=O)O)[C@@H](C)O)C(C)C)[C@@H](C)O)[C@@H](C)O)C(=O)N[C@@H](CC(C)C)C(=O)N1CCC[C@H]1C(=O)N1CCC[C@H]1C(=O)N[C@H](C(=O)N[C@@H](CC(N)=O)C(=O)N[C@H](C(=O)NCC(=O)N[C@@H](CO)C(=O)N[C@@H](CC(N)=O)C(=O)N[C@H](C(=O)N1CCC[C@H]1C(N)=O)[C@@H](C)O)C(C)C)[C@@H](C)O [M8] ({C20 diacid-γGlu}-ASQLSTAVTQRLADFLRHFTDRDRDILPPTNVGSNTP-NH2)

EC50 (luciferase assay, amylin receptor/CRE-luc CHO cells) [2]: 0.122 nM
Relative activity (the EC50 ratio of Cagrilintide to the compound) [2]: 412%
Molecule: {C20 diacid-Trx′}-ASQLSTAATQRLADFLRHSSNNLKPILPPTNVGSNT[Hyp]-NH2 (reading uncertain) [M29]

EC50 (luciferase assay, amylin receptor/CRE-luc CHO cells) [2]: 0.039 nM
Relative activity (the EC50 ratio of Cagrilintide to the compound) [2]: 130%
Molecule: {C20 diacid-Inp′}-ASQLSTAATQRLADFLRHSSNNLKPILPPTNVGSNT[Hyp]-NH2 [M30]

EC50 (luciferase assay, amylin receptor/CRE-luc CHO cells) [2]: 0.049 nM
Relative activity (the EC50 ratio of Cagrilintide to the compound) [2]: 103%
B1: M26 (peptide)
peptide: {C20 diacid}-EASQLSTAATQRLADFLRHSSNNLKPILPPTNVGSNT[Hyp]-NH2
SMILES: CC[C@H](C)[C@H](NC(=O)[C@@H]1CCCN1C(=O)[C@H](CCCCN)NC(=O)[C@H](CC(C)C)NC(=O)[C@H](CC(N)=O)NC(=O)[C@H](CC(N)=O)NC(=O)[C@H](CO)NC(=O)[C@H](CO)NC(=O)[C@H](Cc1c[nH]cn1)NC(=O)[C@H](CCCNC(=N)N)NC(=O)[C@H](CC(C)C)NC(=O)[C@H](Cc1ccccc1)NC(=O)[C@H](CC(=O)O)NC(=O)[C@H](C)NC(=O)[C@H](CC(C)C)NC(=O)[C@H](CCCNC(=N)N)NC(=O)[C@H](CCC(N)=O)NC(=O)[C@@H](NC(=O)[C@H](C)NC(=O)[C@H](C)NC(=O)[C@@H](NC(=O)[C@H](CO)NC(=O)[C@H](CC(C)C)NC(=O)[C@H](CCC(N)=O)NC(=O)[C@H](CO)NC(=O)[C@H](C)NC(=O)[C@H](CCC(=O)O)NC(=O)CCCCCCCCCCCCCCCCCCC(=O)O)[C@@H](C)O)[C@@H](C)O)C(=O)N[C@@H](CC(C)C)C(=O)N1CCC[C@H]1C(=O)N1CCC[C@H]1C(=O)N[C@H](C(=O)N[C@@H](CC(N)=O)C(=O)N[C@H](C(=O)NCC(=O)N[C@@H](CO)C(=O)N[C@@H](CC(N)=O)C(=O)N[C@H](C(=O)N1C[C@H](O)C[C@H]1C(N)=O)[C@@H](C)O)C(C)C)[C@@H](C)O

EC50 (luciferase assay, amylin receptor/CRE-luc CHO cells) [2]: 0.064 nM
Relative activity (the EC50 ratio of Cagrilintide to the compound) [2]: 78%
B2: M27 (peptide)
peptide: {C20 diacid-βAsp}-ASQLSTAATQRLADFLRHSSNNLKPILPPTNVGSNT[Hyp]-NH2
SMILES: CC[C@H](C)[C@H](NC(=O)[C@@H]1CCCN1C(=O)[C@H](CCCCN)NC(=O)[C@H](CC(C)C)NC(=O)[C@H](CC(N)=O)NC(=O)[C@H](CC(N)=O)NC(=O)[C@H](CO)NC(=O)[C@H](CO)NC(=O)[C@H](Cc1c[nH]cn1)NC(=O)[C@H](CCCNC(=N)N)NC(=O)[C@H](CC(C)C)NC(=O)[C@H](Cc1ccccc1)NC(=O)[C@H](CC(=O)O)NC(=O)[C@H](C)NC(=O)[C@H](CC(C)C)NC(=O)[C@H](CCCNC(=N)N)NC(=O)[C@H](CCC(N)=O)NC(=O)[C@@H](NC(=O)[C@H](C)NC(=O)[C@H](C)NC(=O)[C@@H](NC(=O)[C@H](CO)NC(=O)[C@H](CC(C)C)NC(=O)[C@H](CCC(N)=O)NC(=O)[C@H](CO)NC(=O)[C@H](C)NC(=O)C[C@H](NC(=O)CCCCCCCCCCCCCCCCCCC(=O)O)C(=O)O)[C@@H](C)O)[C@@H](C)O)C(=O)N[C@@H](CC(C)C)C(=O)N1CCC[C@H]1C(=O)N1CCC[C@H]1C(=O)N[C@H](C(=O)N[C@@H](CC(N)=O)C(=O)N[C@H](C(=O)NCC(=O)N[C@@H](CO)C(=O)N[C@@H](CC(N)=O)C(=O)N[C@H](C(=O)N1C[C@H](O)C[C@H]1C(N)=O)[C@@H](C)O)C(C)C)[C@@H](C)O

EC50 (luciferase assay, amylin receptor/CRE-luc CHO cells) [2]: 0.039 nM
Relative activity (the EC50 ratio of Cagrilintide to the compound) [2]: 128%
B3: M28 (peptide)
peptide: {C20 diacid}-DASQLSTAATQRLADFLRHSSNNLKPILPPTNVGSNT[Hyp]-NH2
SMILES: CC[C@H](C)[C@H](NC(=O)[C@@H]1CCCN1C(=O)[C@H](CCCCN)NC(=O)[C@H](CC(C)C)NC(=O)[C@H](CC(N)=O)NC(=O)[C@H](CC(N)=O)NC(=O)[C@H](CO)NC(=O)[C@H](CO)NC(=O)[C@H](Cc1c[nH]cn1)NC(=O)[C@H](CCCNC(=N)N)NC(=O)[C@H](CC(C)C)NC(=O)[C@H](Cc1ccccc1)NC(=O)[C@H](CC(=O)O)NC(=O)[C@H](C)NC(=O)[C@H](CC(C)C)NC(=O)[C@H](CCCNC(=N)N)NC(=O)[C@H](CCC(N)=O)NC(=O)[C@@H](NC(=O)[C@H](C)NC(=O)[C@H](C)NC(=O)[C@@H](NC(=O)[C@H](CO)NC(=O)[C@H](CC(C)C)NC(=O)[C@H](CCC(N)=O)NC(=O)[C@H](CO)NC(=O)[C@H](C)NC(=O)[C@H](CC(=O)O)NC(=O)CCCCCCCCCCCCCCCCCCC(=O)O)[C@@H](C)O)[C@@H](C)O)C(=O)N[C@@H](CC(C)C)C(=O)N1CCC[C@H]1C(=O)N1CCC[C@H]1C(=O)N[C@H](C(=O)N[C@@H](CC(N)=O)C(=O)N[C@H](C(=O)NCC(=O)N[C@@H](CO)C(=O)N[C@@H](CC(N)=O)C(=O)N[C@H](C(=O)N1C[C@H](O)C[C@H]1C(N)=O)[C@@H](C)O)C(C)C)[C@@H](C)O

EC50 (luciferase assay, amylin receptor/CRE-luc CHO cells) [2]: 0.168 nM
Relative activity (the EC50 ratio of Cagrilintide to the compound) [2]: 30%
B4: M31 (peptide)
peptide: {C20 diacid-γGlu-AEEA-AEEA}-ASQLSTAATQRLADFLRHSSNNLKPILPPTNVGSNT[Hyp]-NH2
SMILES: CC[C@H](C)[C@H](NC(=O)[C@@H]1CCCN1C(=O)[C@H](CCCCN)NC(=O)[C@H](CC(C)C)NC(=O)[C@H](CC(N)=O)NC(=O)[C@H](CC(N)=O)NC(=O)[C@H](CO)NC(=O)[C@H](CO)NC(=O)[C@H](Cc1c[nH]cn1)NC(=O)[C@H](CCCNC(=N)N)NC(=O)[C@H](CC(C)C)NC(=O)[C@H](Cc1ccccc1)NC(=O)[C@H](CC(=O)O)NC(=O)[C@H](C)NC(=O)[C@H](CC(C)C)NC(=O)[C@H](CCCNC(=N)N)NC(=O)[C@H](CCC(N)=O)NC(=O)[C@@H](NC(=O)[C@H](C)NC(=O)[C@H](C)NC(=O)[C@@H](NC(=O)[C@H](CO)NC(=O)[C@H](CC(C)C)NC(=O)[C@H](CCC(N)=O)NC(=O)[C@H](CO)NC(=O)[C@H](C)NC(=O)COCCOCCNC(=O)COCCOCCNC(=O)CC[C@H](NC(=O)CCCCCCCCCCCCCCCCCCC(=O)O)C(=O)O)[C@@H](C)O)[C@@H](C)O)C(=O)N[C@@H](CC(C)C)C(=O)N1CCC[C@H]1C(=O)N1CCC[C@H]1C(=O)N[C@H](C(=O)N[C@@H](CC(N)=O)C(=O)N[C@H](C(=O)NCC(=O)N[C@@H](CO)C(=O)N[C@@H](CC(N)=O)C(=O)N[C@H](C(=O)N1C[C@H](O)C[C@H]1C(N)=O)[C@@H](C)O)C(C)C)[C@@H](C)O
